Among the data in the supplement of paper PMC10126150 are switch fluorescence ratio values, retold here.

± gives the standard deviation of the averaged measurements.

The data set relates to ATP. Put plainly: switch fluorescence ratio, 500 uM ATP over buffer (Cy3 cluster intensity, sum of 5 cycles each) (fold (ratio)); higher = stronger signal-on switching upon ATP binding; sequences stand for … in TCGTCGGCAGCGTCAGATGTGTATAAGAGACAGTTTTTTTTTTTTTTTTTTTTTTTTT…TC. The following applies: aptamer strand: ATP DNA aptamer (quencher-CACCTGGGGGAGTATTGCGGAGGAAGG + anchor), 100 nM annealed; ATP concentration: 500 uM. Put shortly: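 Cy3-labelled switching-strand clusters on a modified Illumina MiSeq flow-cell were annealed to 100 nM quencher-labelled ATP aptamer, imaged in selection buffer, then imaged after 15 min with 500 uM ATP at 22 °C. Five buffer/ATP cycles ran, with NaOH stripping and re-annealing between them. The fluorescence ratio is summed target-cycle over summed buffer-cycle Cy3 intensity per cluster, averaged per switch-domain sequence. Clusters outside 100-1000 RFU were excluded.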
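Note: ATP exposure 15 min at 22 °C before imaging.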

Turning to AGATTCATGC, the switch fluorescence ratio stood at 1.01 ± 0.019.
With AGATTCATTT, the switch fluorescence ratio is 0.984 ± 0.021.
Consider AGATTCGGGA, for which the switch fluorescence ratio was 0.967 ± 0.038.
Next, AGATTGAATG: 0.97975 ± 0.00032; AGATTGCCGT: 1.01 ± 0.068; AGATTGCTTG: 0.977 ± 0.03.
Next, AGATTGGGGG: 0.969 ± 0.034; AGATTGGGGT: 1.01 ± 0.017; AGATTTAGTA: 0.982 ± 0.06.
The result for AGATTTCACT reads 1.01 ± 0.016.
AGATTTGGCT: the switch fluorescence ratio came to 0.9952 ± 0.0065.
The result for AGATTTTGCA reads 0.989 ± 0.027; that for AGATTTTTGG, 1.003 ± 0.0026; that for AGCAAAAGAA, 1.12 ± 0.15.
As to AGCAACCCCT, the switch fluorescence ratio was found to be 1.81 ± 0.022.
For AGCAAGAGGC, the switch fluorescence ratio came to 1.26 ± 0.34.
The result for AGCAAGGATT reads 1.1 ± 0.1; that for AGCAAGTATC, 1.24 ± 0.033.
For the sequence AGCAAGTTGT, the switch fluorescence ratio came out at 1.03 ± 0.011.
Take AGCAATGGGG: the switch fluorescence ratio came out at 1.58 ± 0.051.
Next, AGCACGAGGG: 0.9816 ± 0.0093; AGCACGGGGG: 1.19 ± 0.28; AGCACTGGGA: 1.04 ± 0.029.
The result for AGCACTTACA reads 1.35 ± 0.085.
Regarding AGCAGAAAGT, the switch fluorescence ratio stood at 1 ± 0.04.
The result for AGCAGGGGGT reads 1.05 ± 0.044; that for AGCAGGTTGT, 1.05 ± 0.015.
The result for AGCAGTGCGG reads 1.03 ± 0.024; that for AGCAGTTCCG, 1.02 ± 0.044; that for AGCATAAGCA, 1.15 ± 0.27.
Next, AGCATAATAT: 1.05 ± 0.012; AGCATGAACT: 1.07 ± 0.044; AGCATGGTAG: 1.02 ± 0.031.
For AGCATTGGGT, the switch fluorescence ratio is 1.002 ± 0.0015.
Next, AGCATTGGTT: 1.02 ± 0.035; AGCATTGTCA: 1.01 ± 0.013; AGCCACTGGA: 1.06 ± 0.059.
Turning to AGCCCACTCG, the switch fluorescence ratio was 1.04 ± 0.05.
Next, AGCCCATACG: 1.2 ± 0.039; AGCCCGGGCA: 0.956 ± 0.015.
The result for AGCCGAATTC reads 1.03 ± 0.06.
Next, AGCCGATATT: 0.967 ± 0.015; AGCCGCTTCA: 0.9803 ± 0.0053; AGCCGGCGGT: 1.02 ± 0.019.
For AGCCGTTGAG, the switch fluorescence ratio is 0.9916 ± 0.0061.
The result for AGCCTGTTAG reads 0.9892 ± 0.0087; that for AGCCTTTATC, 1.04 ± 0.011.
The result for AGCGAATGGT reads 0.951 ± 0.012.
Next, AGCGACGGTT: 0.982 ± 0.016; AGCGCCAGGG: 1.13 ± 0.035.
As for AGCGCCGAGT, the switch fluorescence ratio was found to be 0.973 ± 0.045.
The result for AGCGCGTCGC reads 0.955 ± 0.016; that for AGCGGATTCG, 0.969 ± 0.053.
Consider AGCGGCCTAA, for which the switch fluorescence ratio amounted to 0.987 ± 0.014.
Next, AGCGGGAACG: 1.005 ± 0.0013; AGCGGGAGAT: 1.01 ± 0.061; AGCGGGAGGG: 1.02 ± 0.015.
The result for AGCGGGATGC reads 1.03 ± 0.028; that for AGCGGGGAGG, 1.03 ± 0.035.
With AGCGGGGGAG, the switch fluorescence ratio was 1.01 ± 0.012.
The result for AGCGTCTTGC reads 1.01 ± 0.059.
As to AGCGTTGGTG, the switch fluorescence ratio is 1.03 ± 0.031.
AGCGTTTAGA: the switch fluorescence ratio came to 0.989 ± 0.011.
Next, AGCGTTTATA: 1.018 ± 0.0013.
The result for AGCGTTTTTT reads 0.998 ± 0.026.
The result for AGCTAATTTT reads 1.02 ± 0.013; that for AGCTACCTTA, 1.09 ± 0.05.
Consider AGCTAGGTAA, for which the switch fluorescence ratio was found to be 1.01 ± 0.029.
As for AGCTCAATTA, the switch fluorescence ratio turned out to be 1.02 ± 0.03.
The result for AGCTGAAG reads 0.967 ± 0.013; that for AGCTGACTAT, 1.06 ± 0.11.
The result for AGCTGAGTAA reads 1.036 ± 0.0085; that for AGCTGATGTG, 1.008 ± 0.0051.
AGCTGCACAT: the switch fluorescence ratio stood at 1.048 ± 0.0022.
Next, AGCTGGCCCT: 1 ± 0.013.
The result for AGCTGGCTGT reads 0.9735 ± 0.0037; that for AGCTGGGATT, 0.989 ± 0.054.
Next, AGCTGTACTG: 1.09 ± 0.011; AGCTGTCGCT: 1.01 ± 0.076.
As for AGCTGTTGCA, the switch fluorescence ratio came to 0.971 ± 0.024.
As for AGCTTAGGGA, the switch fluorescence ratio was found to be 0.99 ± 0.036.
As for AGCTTATCTA, the switch fluorescence ratio was determined as 1 ± 0.011.
Next, AGCTTATGTT: 0.985 ± 0.017; AGCTTCCATG: 1.09 ± 0.023; AGCTTCGGTC: 0.953 ± 0.0098.
The result for AGCTTCGTTT reads 1 ± 0.031; that for AGCTTCTTAA, 0.992 ± 0.068; that for AGCTTGAAG, 0.999 ± 0.019.
Next, AGCTTGATGT: 1.02 ± 0.053; AGCTTGGGTC: 0.994 ± 0.019; AGCTTGTCGG: 1.01 ± 0.025.
With AGCTTGTTCG, the switch fluorescence ratio was determined as 0.987 ± 0.023.
The result for AGCTTTGGGG reads 1.02 ± 0.018; that for AGGAAAGGCG, 1.09 ± 0.015.
The result for AGGAAAGTGT reads 1.01 ± 0.017; that for AGGAAATTTG, 0.994 ± 0.031; that for AGGAACGCGG, 1.04 ± 0.018.
Next, AGGAACTGCA: 1.07 ± 0.029.
AGGAAGCGGT: the switch fluorescence ratio is 0.958 ± 0.051.
The result for AGGAAGGGGA reads 0.9683 ± 0.0089; that for AGGAATACTT, 1.07 ± 0.043; that for AGGAATCAAG, 0.9968 ± 0.0071.
The result for AGGAATGCAA reads 1.09 ± 0.017; that for AGGAATTGAT, 1.13 ± 0.27; that for AGGAATTTTA, 0.9554 ± 0.0062.
Next, AGGACAGGTG: 1.33 ± 0.055; AGGACGGTAG: 0.992 ± 0.058; AGGACGTTGG: 0.963 ± 0.034.
For AGGACTGTCT, the switch fluorescence ratio stood at 0.986 ± 0.018.
Take AGGAGAACGG: the switch fluorescence ratio is 0.938 ± 0.011.
The result for AGGAGAAGGG reads 0.985 ± 0.018.
The result for AGGAGAGGGT reads 0.967 ± 0.013.
The result for AGGAGAGTCA reads 0.9825 ± 0.0036; that for AGGAGGAAGT, 1.01 ± 0.026.
Turning to AGGAGGCATG, the switch fluorescence ratio came to 0.986 ± 0.043.
Next, AGGAGGCGGG: 0.99 ± 0.035; AGGAGGGCAG: 1.013 ± 0.0059.
Next, AGGAGGGCGA: 0.9582 ± 0.002; AGGAGGTGCT: 0.965 ± 0.067.
Next, AGGAGTGGGG: 1 ± 0.022.
